Source: a protein production outcome set (Wang et al. 2014)

Experiment: label from the status in PepcDB records

Sequence	protein production
MKKKLFSPIWLLPIVALALGAWLGIKSIKESGVEIQIHFPSATGIDVGKTLVKYQGLTVGKVKDIGIDDDLKGVNVKVMMDYRAKPFLNKETLFWLVTPKASITGVEGLDALFSGNYIAIQPGKGNAATFFEAERQPPPMQIGSEGVMIELTADKLGSLDVGSPVFFRQIPVGSVVSYRLDGNARVIISAFIQEQYARLVKKNSHFWNVSGVKVDASLAGIKVNTESLASILAGGVSFSSDEKAAAAQNGDSFALYDSETSALGGVEVSLTMNDGNGIDKGTRIVYRGISVGSIQSKNLTTTGVTAIAKFEPEYANLLTSDGRFWLEGADISLSGIKNPERLLTGSVINFLPGTNANTALPSSFALQSSAPDLLQAKKRLLTITSAENMGLTAGAEVRYKQLPIGQVLAVKLTKDLSAVEYQLELQPEFASLVRSDSYFIPESALSVDASIEGVSVKTRDLATLTKGAVSLIPGSNNTPVAANARLSLFSSVEEAKQFFERQQRLYFTLTSQDGADVSQGSPIYYKKMQIGRVESVNWQSKTEDFAIKIAIDKQFQPLMQKPKVFWRNSALDVSASLAGIDVAVAPLQGALKGSISLGLLENPLADPTASLKLYENKQLALAQAQAIRLTLSASAKLAAKAAIRYQGHQVGEVTQVKLNADLNTLSATAYLYGEYADHFSSSDAEYHMVEAQISLAGIKAPETLITGPYIGVLPGKSKQKATQFQAKLVESSYANVAEDALKFTLEDSNLGSMKVGTPIFFRGLKVGQIDGYSLSSQGNSVLMQAHIEPQYRHLVNKTSQFWDASGIKVDVGIFSGAQIEAGSLETLLAGGINVATKETTQANNRLSQGAVITLQHKAQTEWQEWAPAQ	failed
MKKKLFYYLFAVLCTATLFTSCSDDDDEVKYPIDTELAGGYVGNLSVNVDGNQMGTTENQKITISQSNKETNQIALSLKNFTFLVNVGDIEVDPCTVKAIDGGYAFEGQQNLDLVQPLGNCPVSISGTVKGSNINIEIGVKVGAPLNQNVKATFVGRKLTGSESSEAKIISFILDDDIVTEQPIINEEEGIVTFKVSDAAVDDDLSGMIPTIVVSSKAKITPASGVAQDFSNGKKVEYTVTAEDGTTKKYSVFIAGSSDYYSFETWKSLNDGAFEEPDGGWATSNTGVWFIKTVYPDVYNGDYPVVKSEDAKDGAVGVKLITLDTKGQAGADWGFIKIPAIPKVTSGSLFLGTFETDIQNTLNSTKFGNPYYSKPISVQFSYKYTPGAVYYTCPDPVKAEAVTEDPNTTDECSVTAVIYEVPYWETVDPDDANNKAYDKRLTGANLYTNTDQVIAMATFSSGVQEDYKDITLTLNYEKDYDPTKKYRFAIVFSSSKNGDKFSGAPGSTLIVDNVKVVAEK	failed
MKKKSFSIVIAGGGSTFTPGIVLMLLDHLEEFPIRKLKLYDNDKERQDRIAGACDVFIREKAPDIEFAATTDPEEAFTDVDFVMAHIRVGKYAMRALDEQIPLKYGVVGQETCGPGGIAYGMRSIGGVLEILDYMEKYSPDAWMLNYSNPAAIVAEATRRLRPNSKILNICDMPVGIEDRMAQILGLSSRKEMKVRYYGLNHFGWWTSIQDQEGNDLMPKLKEHVSQYGYIPKTEAEAVEASWNDTFAKARDVQAADPDTLPNTYLQYYLFPDDMVKKSNPNHTRANEVMEGREAFIFSQCDMITREQSSENSEIKIDDHASYIVDLARAIAYNTGERMLLIVENNGAIANFDPTAMVEVPCIVGSNGPEPITVGTIPQFQKGLMEQQVSVEKLTVEAWAEKSFQKLWQALILSKTVPNARVARLILEDLVEANKDFWPELDQSPTRIS	not failed
MKKKYTIFAISMAVALVLGGEVQSINDSVEAQELQHTVKNVKQTEDFNPTKYANEIENFVKQQNPVSIKSLFSTIALKEKADFEKYGEANAAQVKMLWGSYVFFDFGFVKDSKIIEAIKNNPSVYAKFKKTVNINGTGAFLPGTGSPESISIKNNEDGSNIDSYAYYTPHNPDITKNADKTVVMHGGFRGGYEAGNDTPEIRTFYDKGYNILCVDNRATSLSGGDYVTFGQYESDDVQAWINHYLKDKPDQKIVLYGGSMGASTMMSVLAKNYSSNIKGIIENCGFANIRNELGYVYTMAAIGKNELKDLTGTDFAEDFSVTPMNLQKMMETINNYYIKPKANVDIDGNLPAQGITNAIMPKLFIHGESDLVVPFKDNGQYLATLGDTNNNYKFFVPKAGHGEAQTIDGNGYDKAISDYLNLIFK	failed
MKKLKIVMTGGGSAGHVTPNLALVPKLKELGYEIEYIGTKDGIERSIIEKENIKYNCISSGKLRRYIDIKNFSDPFKVILGIFQSVSILRKKKPNIVFSKGGFVSVPVVIAAHFCRIPVIAHESDITPGLANRIAVPYCTKVCATFPESLNNIKGNKGILTGTPIRDELFKGSKIKGLEICGFTGEKPVLMIIGGSLGSKIIN	failed
MKKLNIALLGLGTVGSGVVKIIEENRQQIQDTLNKDIVIKHILVRDKSKKRPLNISQYHLTEDVNEILNDDSLDIIVEVMGGIEPTVDWLRTALKNKKHVITANKDLLAVHLKLLEDLAEENGVALKFEASVAGGIPIVNAINNGLNANNISKFMGILNGTSNFILSKMTKEQTTFEEALDEAKRLGFAEADPTDDVEGVDAARKVVITSYLSFNQVIKLNDVKRRGISGVTLTDINVADQLGYKIKLIGKGIYENGKVNASVEPTLIDKKHQLAAVEDEYNAIYVIGDAVGDTMFYGKGAGSLATGSAVVSDLLNVALFFESDLHTLPPHFELKTDKTREMMDSDAEINIKEKSNFFVVVNHVKGSIENFENELKAILPFHRSLRVANYDNQSYAAVIVGLESSPEELITKHGYEVDKVYPVEGV	failed
MKKLTVYLATTNPHKVEEIKMIAPEWMEILPSPEKIEVVEDGETFLENSVKKAVVYGKKLKHPVMADDSGLVIYSLGGFPGVMSARFMEEHSYKEKMRTILKMLEGKDRRAAFVCSATFFDPVENTLISVEDRVEGRIANEIRGTGGFGYDPFFIPDGYDKTFGEIPHLKEKISHRSKAFRKLFSVLEKILESENR	not failed
MKKNDLSALQENCFCFCDEEISREAPFQVPIDFPEGFKVDTAEASAAVTWSTDNLSCISEPCLIQTGPEPEDIGVRYAVRVQGTITLLVSVSPVRNQYGQGDGAVSVIHTEEIDQVVYYAAQSGRCPDFSQITVEDLLIVPPFYGSPLTVAGTLVLPPSPDPQSYVFTANTGDSTVSVIDADLNTVVKTIPFSDVPTNLGVTFDKAFTYVLHGNTNLVSVIDNKTLTIINTITVGGGPRKIEFDPTDEFAYVMAAGSIYVINTASQSVIDVIPIPGALDFALDPNGQYVYTANGSSWSVDKYDVNTGQLVESIIDTFEFPSLITTPYAGNFAYVLNGELWPKGVTEISLSPLSRGGDFSRLFETLRTIVFSLDSTRAYFLEPYSEPFLINNLYVVNTARQRIIANVSLPGAFDLAVTPDKQYIYAAQPNDNAVTVYRTSDYTAVTVIPVGAGPSAIAMLEHHHHHH	failed
MKKNILFIQGGGEGGYEADKHLVASLQQALGKDYAIQYPELSSDETAPDFGWPQQIGTLLSKTDDEIILAAHSLGASMLLKYLSEYVVKNKKIAGVFLLAAPFWEGKEEWKTGLKLKEHFSDTLPKDVPFFFYQCRDDEEVPFSHLEQYRKKLSRAAFREISSGGHTFHTDLSVLATDISAL	failed
MKKNNAISNFYRILSIVLEIFIVAFSIYLAYMVRFRFRIIPPKFNYAPFERSLPFTIIVYMVFMYIFGLVDILKKSLWEIVYSIFLTVIMLFVFTMAITFSLRGFSYPRLVILLSSVFQFFLLSIFKCLWWKLERKIYGTKNTVIIGQNGESIAKKILLKHDDLYSISSIIKNYTEDKKSIVEKADIVLISDDLDENTKSTIIKESMYMNKNIFIVPSVTDIAFYKANFEQIDDVPILKVDTLELSAEQKTVKRLLDIVVAIIATVVFSPFLIILPIIIKCTDGGSPFYFQERVTNGGKKFKLIKFRSMIVNAEKHSGPVLVTENDSRITKIGKIMRATRLDEIPQLFNILKGDMSIVGPRPERPFYVEKFEKEIPDYKYRTFVKAGLTGLAQVLGKYNTTPEDKIKYDIMYIKNYSILLDIKLIIQTVKIMFMKESTEAVKDDVELEEILKKKNIKIKIY	failed
MKKPVLETWLERGLFASRWLMAPFYVGLVVALAALMVVFFQELFQELPRVPSMTPESAILMALTLIDLSLAANLMVIVILSGYENFVSKIDTASHEDRPEWMGTVDFSGLKMKLIASIVAISAIALLKAFLKLTEPGQTVDQVRLFWLVMVHLSFVVSGVLLAVMDWLNAKVAKS	failed
MKKQEKGNEVVTFEENPSTYVHHHTKKASMVLSEQEIEVILQSNKETYNEKLEKNTKENAEKVGIEEGNGSSSKITPCIFYTSDEKARLRWSSDLHDCFVNAVEKLGGPNKATPKSVKEAMEVEGIALHHVKSHLQKFRLGKCNIRGGTNQYVRQSQSMPHKSQQQLQLNNDCVNHDSYCNATFLSVTVPPTIDSLHQDTLNNTILFPTTLQAIPTSVSHNTYMSSYPSYNTVEVVKAQLNALQDSSTSQTQETFSRETNLSSIVTRDEADPVDKYIDWNKVGETDIEHDSVEVLEALGLK	failed
MKKQLIILTTLSTCIFLSACNDNNDSGSYVSSPSIPENNIQNPVVRMDAYTSTDMSLVANESLLMTYKMLGINNKEVQATALVFTPKGVPPVGGWPIVAWAHGTTGVADVCAPSRNVMDENVKTMITQLLAQGYVVVAPDYEGLGEPSGKEIHPFLNVKSEAYSITDAVVAAKSYLGAKAATRWVAVGHSQGGQAALGAAQYASRAKLTYKGTIAVAPASNLDLILNAGELSAANQPVAVQIPTYTNLDTYTALITAGLRNPNPSLQYSQIFKTPSDSIAAQAESVCAPALGQSFAAGLTEYSNKNNNTLVGYGRTQDGFLNLPVVKNFTSTDGQPLTVKVSTPIKIYQGQADTTVPLIATNKLVTEAKLAGTNINFITNETWTHGSAYSLNISNIVTDVNTLFTQ	failed
MKKRIILLLAVIIAAAAAGVAFYVAKDKGHEKAADVSVNTESGDELLVSITDTDLLTKYYENDKVIHEEKLTSYPAFALDQKQQVLYYTGNNEQNEMRLFKLDLKSHKKTMLYKGAESADSLFLSKDRSTIYFRLGKADESNFRIAAFDLKTKKYKNLYPAANDQDDTVSSFFYNQKNDSFALLHYSVEEDYKKTDEANEKGIDPEPTTIHFAEGRQNKFNELKSLNQFISDIAVSDDDKRILFTSYTQKGTEQTASIQMLNADTKKYESIISNQKSFKLLIDAQPQFSKDGKNIYFLAEAKGAKKLKDETGREAKVRTIYSYSLENKTFKKVWENPNGIINSFFVIN	failed
MKKRILSAVLVSGVTLGTAAVTVNADDFDSKIAATDSVINTLSGQQAAAQNQVTAIKGQVGALESQQSELEAQNAQLEAVSQQLGQEIQTLSNKIVARNESLKKQVRSAQKGNLTNYINTILNSKSVSDAVNRVVAIREVVSANEKMLAQQEADKAALEAKQIENQNAINTVAANKQAIENNKAALATQRAQLEAAQLELSAQLTTVQNEKASLIQAKAQAEEAARKAAEAQAAAEAKAQAEAKAQAESVAKAQAAAQVESATAPTETVQTQPRTEIKPSNLTATSSATTVATTTATATNEPKVTQPSVVTKAVEAPKAVVSSTPRAVSKPVVRSYDSSNTYPMGQCTWGAKSMASWVGNYWGNANQWGASARAAGYSVGTTPRVGAVAVWPYDGGGYGHVAVVTSVANNSSIQVMESNYAGNMSIGNYRGSFNPSASGSVYYIYPN	failed
MKKRILSAVLVSGVTLSAAASVHAEDYDSQIAATNNAISNLASQQEAAQAQVATIQSQVSTLRTQKTELEAKNAELEKVSADLESEIQELSSKIVARQDSLAKQARSAQQNNTATSYINSILNSKSISEAITRITAISKVVTANNDLLTKQESDQKELAAKQEENQAAINTIAANKSELETTEAGLTTQQAELEAAQVTLAAELATAQNEKTSLVSAKSTAESVAASTAASVAQSQAIAESEATAQVVASSEAATSVASSEVAATSEAVAQPSETPVSETSTASEAAQEPASSETSEVQPESAAPAVSEAPASVAPVATSEAAPATSEAPASVAPVATSEAAPAVSEAPAPAAETHKVSAASTPNTYPVGQCTWGVKSLAPWAGNNWGNAKNWIASAQAAGHSVGTTPVAGAIAVWPNDGGGYGHVAYVTSASGANSIQVMESNYAGNMSISNYRGTFDPTSSAHGGSVFYIYPLEHHHHHH	not failed
